Measurements published in PMC12412469 (2025).

Experiments:
[1] = target: T1, Recombinant Human VEGF165 (human, UniProt P15692-4 1-191)
T1 chain: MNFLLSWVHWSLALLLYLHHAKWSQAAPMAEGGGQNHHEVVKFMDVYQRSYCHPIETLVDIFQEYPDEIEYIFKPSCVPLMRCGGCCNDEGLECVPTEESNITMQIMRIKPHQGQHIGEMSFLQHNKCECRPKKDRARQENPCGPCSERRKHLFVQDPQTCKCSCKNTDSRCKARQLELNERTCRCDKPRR

[2] = target: T1, Recombinant Human VEGF165; test: SPR; rhVEGF165 amine-coupled to a CM5 chip; designs injected (multi-cycle kinetics, 60 s injection, 60 s dissociation); PBS with 0.05% Tween-20; 25 °C; 10 µL/min; 1:1 binding assumed, linearization method
[3] = target: T1, Recombinant Human VEGF165; test: SPR
[4] = target: T2, Biotinylated Recombinant Human IL-7R alpha/CD127 Fc Chimera Avi-tag (human, UniProt P16871 21-239, biotin (biotinylated Avi-tag)); test: SPR
T2 chain: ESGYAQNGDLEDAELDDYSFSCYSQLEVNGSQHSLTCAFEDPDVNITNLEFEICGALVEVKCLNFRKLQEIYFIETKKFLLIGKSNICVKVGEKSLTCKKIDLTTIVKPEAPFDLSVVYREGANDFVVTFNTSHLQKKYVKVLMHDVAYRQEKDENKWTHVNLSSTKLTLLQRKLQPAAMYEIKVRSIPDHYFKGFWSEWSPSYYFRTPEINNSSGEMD

B1: Sam0.7 (designed binder)
chain: LPTAEEVQKLMARYIELMDVGDIEAIVQMYADDATVEAPFGAPPIHGRERIAYFYRRMLGGGIARATLTGPVRASHNGTGAMPFRVEYVFNGQPFAMDVRVEMRFDEHGRIQTMQAYWDWVNLSVREP
proliferation of the VEGF-sensitive leukemia cell line U937 (CellTiter-Blue, 72 h), 1 to 100 µg/mL of the binder, percent of untreated control [1]: 50%
Kd [2]: 190 nM
koff [3]: 0.0309 s⁻¹

B2: Sima3.2 (designed binder)
chain: STNISPKQGLDKAKYFSGKWYLTHVLIKDPKIVSQFCASFTPRESDGTVKIAVYLYLAIKKTSDYAIGEGKLESSGLQYTATSKVVDKKKAVLKELDERHSYTVTVLEADDSSALTHITVREGSKDYGDYYLVLTHQKDAEPSAKVKSAVTQAGLQLSQFVGTKDLGCQYDDQFTSL
other [1]: 50%
Kd [3]: 14 nM
koff [3]: 0.0006 s⁻¹

B3: 5NLC scaffold (unmutated template) (other)
chain: MAQIAERLASLRSQLPPSVQLIAVSKNHPAAAIREAYAAGQRHFGENRVQEAIAKQAELTDLPDLTWHLLGKLQSNKARKAVEHFDWIHSVDSWALAERLDRIAGELGRSPKLCLQVKLLPDPNKAGWDPADLRAELPQLSQLQQVQIRGLMVIAPLGLTAAETQALFAQARTFAAELQQQAPQLRLTELSMGMSSDWPLAVAEGATWIRVGTQLFGPRSL
koff [4]: 0.375 s⁻¹

B4: 6YUD scaffold (unmutated template) (other)
chain: MKFAVIDRKNFTLIHFEIEKPIKPEILKEIEIPSVDTRKGVVISGRGPIWLHCFLAHKYAHTPFVAVYDPRLGAVVVQSHSELREGDVIDVVVEEILKGGVRHV
koff [4]: 0.0821 s⁻¹
